Article PMC12876990, “Targeting secreted PLA2 interactions with EGFR and vimentin to arrest prostate tumour growth” (Cell Death & Disease, 2025)
Square brackets hold non-standard residues; d marks the D form. 2Nal = N[C@@H](Cc1ccc2ccccc2c1)C(=O)O

Molecular target: T1, vimentin coil 2 (purified fragment)
T1 construct: vimentin, coil 2 fragment, purified; PDB 3TRT was used only for docking; also called second coil of vimentin; source: purified
Assay: ELISA; competition enzyme immunoassay: vimentin coil 2 coated on the plate (15 µg/mL); hGIIA 100 ng/mL in PBS with 0.1% BSA mixed with c2 0.1-100 µM in DMSO, 37 °C, 2 h; detected with 4A1-alkaline phosphatase
Conditions: both partners purified

B1: c2 (cyclo-((2-Nal)-Leu-Ser-(2-Nal)-Arg)) (peptide)
chain: cyclo([2Nal]LS[2Nal]R)
SMILES: CC(C)C[C@@H]1NC(=O)[C@H](Cc2ccc3ccccc3c2)NC(=O)[C@H](CCCNC(=N)N)NC(=O)[C@H](Cc2ccc3ccccc3c2)NC(=O)[C@H](CO)NC1=O
Binder B1 has an IC50 of 56.5 µM.
